Legend:
biotinylated VEGF [1] = molecular target: T1, biotinylated VEGF (human, UniProt P15692-4 27-191, limits assumed, biotinylated (sites not given)); assay: competition ELISA with VEGFR2/Fc for biotinylated VEGF; 6% 1008, 9% sucrose, 20 mM citrate, 0.1% PS80, pH 6.25; 25 C, 8 weeks
T1 construct: The ELISA paragraph says only 'biotinylated VEGF'; also called human vascular endothelial growth factor A; VEGF-A
Method: (§1) The competition ELISA was used for potency testing.
(§2) The samples were stored at 2-8° C., 25° C., 40° C. and light cabinet (LC); they also went through three cycles of freeze-thaw (FT). The samples were pulled according to the schedule shown in Table 30, and analyzed by various analytical methods.

biotinylated VEGF [2] = molecular target: T1, biotinylated VEGF; assay: competition ELISA with VEGFR2/Fc for biotinylated VEGF; 6% 1008, 9% sucrose, 20 mM citrate, 0.1% PS80, pH 6.25; 40 C, 4 weeks
Method: as §1, §2

biotinylated VEGF [3] = molecular target: T1, biotinylated VEGF; assay: competition ELISA with VEGFR2/Fc for biotinylated VEGF; 6% 1008, 9% sucrose, 20 mM citrate, 0.1% PS80, pH 6.25; 2-8 C, 0 weeks
Method: as §1, §2

biotinylated VEGF [4] = molecular target: T1, biotinylated VEGF; assay: competition ELISA with VEGFR2/Fc for biotinylated VEGF; 6% 1008, 9% sucrose, 20 mM citrate, 0.1% PS80, pH 6.25; 2-8 C, 8 weeks
Method: as §1, §2

biotinylated VEGF [5] = molecular target: T1, biotinylated VEGF; assay: competition ELISA with VEGFR2/Fc for biotinylated VEGF; 6% 1008, 9% sucrose, 20 mM citrate, 0.1% PS80, pH 6.25; 25 C, 12 weeks
Method: as §1, §2

biotinylated VEGF [6] = molecular target: T1, biotinylated VEGF; assay: competition ELISA with VEGFR2/Fc for biotinylated VEGF; 6% 1008, 9% sucrose, 20 mM citrate, 0.1% PS80, pH 6.25; 25 C, 26 weeks
Method: as §1, §2

biotinylated VEGF [7] = molecular target: T1, biotinylated VEGF; assay: competition ELISA with VEGFR2/Fc for biotinylated VEGF; 6% 1008, 9% sucrose, 20 mM citrate, 0.1% PS80, pH 6.25; 2-8 C, 12 weeks
Method: as §1, §2

biotinylated VEGF [8] = molecular target: T1, biotinylated VEGF; assay: competition ELISA with VEGFR2/Fc for biotinylated VEGF; 6% 1008, 9% sucrose, 20 mM citrate, 0.1% PS80, pH 6.25; 2-8 C, 26 weeks
Method: as §1, §2

biotinylated VEGF [9] = molecular target: T1, biotinylated VEGF; assay: competition ELISA with VEGFR2/Fc for biotinylated VEGF; 6% 1008, 9% sucrose, 20 mM citrate, 0.1% PS80, pH 6.25; 40 C column, 0 weeks (initial)
Method: as §1, §2

biotinylated VEGF [10] = molecular target: T1, biotinylated VEGF; assay: competition ELISA with VEGFR2/Fc for biotinylated VEGF; control formulation (60 mg/ml 1008, 20 mM citrate, 0.001% PS20, pH 6.25), 5 weeks at 40 C
Method: as §1
The control formulation was filtered through 0.2 um syringe filter and stored at 40° C., ambient room temperature, and refrigerator. The samples were pulled at 0, 2 and 5 weeks for 40° C. samples, and 26 weeks for samples stored at ambient room temperature and refrigerator. The selected stability samples were tested for pH, osmolality, content by A280, SEC, IEX CGE and ELISA.

T1 sequence (P15692 other isoform, or with tags, fused parts or gaps limits assumed): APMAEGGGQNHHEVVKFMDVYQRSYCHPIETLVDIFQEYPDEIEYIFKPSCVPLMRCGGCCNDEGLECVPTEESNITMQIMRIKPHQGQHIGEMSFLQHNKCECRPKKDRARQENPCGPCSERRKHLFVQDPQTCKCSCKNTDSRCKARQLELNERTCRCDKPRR

B1: 1008 antibody (scFv)
scFv: MEIVMTQSPSTLSASVGDRVIITCQASEIIHSWLAWYQQKPGKAPKLLIYLASTLASGVPSRFSGSGSGAEFTLTISSLQPDDFATYYCQNVYLASTNGANFGQGTKLTVLGGGGGSGGGGSGGGGSGGGGSEVQLVESGGGLVQPGGSLRLSCTASGFSLTDYYYMTWVRQAPGKGLEWVGFIDPDDDPYYATWAKGRFTISRDNSKNTLYLQMNSLRAEDTAVYYCAGGDHNSGWGLDIWGQGTLVTVSS
notes: also called anti-VEGF antibody
ELISA (relative potency against 1008 reference standard) (biotinylated VEGF [1]): 1.1 ratio to 1008 reference standard | ELISA (relative potency against 1008 reference standard) (biotinylated VEGF [2]): 0.87 ratio to 1008 reference standard | ELISA (relative potency against 1008 reference standard) (biotinylated VEGF [3]): 0.86 ratio to 1008 reference standard | ELISA (relative potency against 1008 reference standard) (biotinylated VEGF [4]): 1.2 ratio to 1008 reference standard | ELISA (relative potency against 1008 reference standard) (biotinylated VEGF [5]): 0.92 ratio to 1008 reference standard | ELISA (relative potency against 1008 reference standard) (biotinylated VEGF [6]): 1.1 ratio to 1008 reference standard | ELISA (relative potency against 1008 reference standard) (biotinylated VEGF [7]): 0.97 ratio to 1008 reference standard | ELISA (relative potency against 1008 reference standard) (biotinylated VEGF [8]): 1.1 ratio to 1008 reference standard | ELISA (relative potency against 1008 reference standard) (biotinylated VEGF [9]): 0.86 ratio to 1008 reference standard | ELISA (relative potency against 1008 reference standard) (biotinylated VEGF [10]): 1 ratio to 1008 reference standard

— patent US20160340420A1 (Novartis, published 2016)
